pKd: −log10 of the molar value.
What was measured:
[1] = biological target: HLA-B*57:01; experiment: IEDB peptide-MHC binding, purified MHC/competitive/fluorescence; filed as Kd, often an IC50 or EC50 that approximates it; ≥ and ≤ were set here for values at or beyond the usual limits of such assays
[2] = biological target: HLA-A*29:02; experiment: as above
[3] = biological target: HLA-A*02:12; experiment: as above
[4] = biological target: HLA-A*26:01; experiment: as above
[5] = biological target: HLA-A*02:19; experiment: as above
[6] = biological target: HLA-A*02:11; experiment: as above
[7] = biological target: HLA-A*02:01; experiment: as above
[8] = biological target: HLA-B*51:01; experiment: as above
[9] = biological target: HLA-A*24:03; experiment: as above
[10] = biological target: HLA-A*02:03; experiment: as above
[11] = biological target: HLA-B*27:03; experiment: as above
[12] = biological target: HLA-B*46:01; experiment: as above
[13] = biological target: HLA-A*23:01; experiment: as above
[14] = biological target: HLA-B*15:01; experiment: as above
[15] = biological target: HLA-B*15:17; experiment: as above
[16] = biological target: HLA-B*39:01; experiment: as above
[17] = biological target: HLA-B*18:01; experiment: as above
[18] = biological target: HLA-A*03:01; experiment: as above
[19] = biological target: HLA-B*57:01; experiment: IEDB peptide-MHC binding, purified MHC/direct/fluorescence; filed as Kd, often an IC50 or EC50 that approximates it; ≥ and ≤ were set here for values at or beyond the usual limits of such assays; conditions: source organism: Mycobacterium tuberculosis
[20] = biological target: HLA-B*07:02; experiment: as above
[21] = biological target: HLA-A*11:01; experiment: as above
[22] = biological target: HLA-B*27:05; experiment: as above; conditions: source organism: Mycobacterium tuberculosis
[23] = biological target: HLA-B*48:01; experiment: as above
[24] = biological target: HLA-B*58:01; experiment: as above; conditions: source organism: Mycobacterium tuberculosis
[25] = biological target: HLA-A*31:01; experiment: as above
[26] = biological target: HLA-A*01:01; experiment: as above; conditions: source organism: Mycobacterium tuberculosis
[27] = biological target: HLA-B*46:01; experiment: as above
[28] = biological target: HLA-A*69:01; experiment: as above
[29] = biological target: HLA-B*15:01; experiment: as above; conditions: source organism: Mycobacterium tuberculosis
[30] = biological target: HLA-B*15:17; experiment: as above; conditions: source organism: Mycobacterium tuberculosis
[31] = biological target: HLA-B*40:01; experiment: as above
[32] = biological target: HLA-B*18:01; experiment: as above; conditions: source organism: Mycobacterium tuberculosis
[33] = biological target: HLA-A*68:02; experiment: IEDB peptide-MHC binding, purified MHC/competitive/fluorescence; filed as Kd, often an IC50 or EC50 that approximates it; ≥ and ≤ were set here for values at or beyond the usual limits of such assays; conditions: source organism: Mycobacterium tuberculosis C
[34] = biological target: HLA-A*02:06; experiment: as above
[35] = biological target: HLA-A*26:02; experiment: as above
[36] = biological target: HLA-A*26:03; experiment: IEDB peptide-MHC binding, purified MHC/direct/fluorescence; filed as Kd, often an IC50 or EC50 that approximates it; ≥ and ≤ were set here for values at or beyond the usual limits of such assays; conditions: source organism: Burkholderia mallei ATCC 23344
[37] = biological target: HLA-A*02:16; experiment: IEDB peptide-MHC binding, purified MHC/competitive/fluorescence; filed as Kd, often an IC50 or EC50 that approximates it; ≥ and ≤ were set here for values at or beyond the usual limits of such assays; conditions: source organism: Shigella dysenteriae Sd197
[38] = biological target: HLA-B*15:02; experiment: as above
[39] = biological target: HLA-A*68:02; experiment: IEDB peptide-MHC binding, purified MHC/direct/fluorescence; filed as Kd, often an IC50 or EC50 that approximates it; ≥ and ≤ were set here for values at or beyond the usual limits of such assays; conditions: source organism: Burkholderia mallei
[40] = biological target: HLA-B*27:05; experiment: IEDB peptide-MHC binding, purified MHC/competitive/fluorescence; filed as Kd, often an IC50 or EC50 that approximates it; ≥ and ≤ were set here for values at or beyond the usual limits of such assays; conditions: source organism: Escherichia coli 536
[41] = biological target: HLA-A*01:01; experiment: as above; conditions: source organism: Escherichia coli 536
[42] = biological target: HLA-C*12:03; experiment: IEDB peptide-MHC binding, purified MHC/direct/fluorescence; filed as Kd, often an IC50 or EC50 that approximates it; ≥ and ≤ were set here for values at or beyond the usual limits of such assays; conditions: source organism: Francisella tularensis subsp. tularensis FSC198
[43] = source organism: Mycobacterium tuberculosis variant bovis BCG str. Pasteur 1173P2
[44] = source organism: Mycobacterium tuberculosis
[45] = source organism: Mycobacterium tuberculosis C
[46] = source organism: Shigella dysenteriae Sd197
[47] = source organism: Burkholderia mallei
[48] = source organism: Escherichia coli 536

In the case of AEDLADHHV, the pKd [1, 43] was at most 4.70, the pKd [2, 43] was at most 4.70 and the pKd [3, 43] was at most 4.70. The pKd [4, 43] was at most 4.70, the pKd [5, 43] was at most 4.70 and the pKd [6, 43] was 7.88. The pKd [7, 43] was at most 4.70, the pKd [8, 43] was at most 4.70 and the pKd [9, 43] was at most 4.70. The pKd [10, 43] was at most 4.70, the pKd [11, 43] was at most 4.70 and the pKd [12, 43] was at most 4.70. It also gave a pKd [13, 43] of at most 4.70, a pKd [14, 43] of at most 4.70 and a pKd [15, 43] of at most 4.70. It also gave a pKd [16, 43] of at most 4.70, a pKd [17, 43] of at most 4.70 and a pKd [18, 43] of at most 4.70.

For AVFPRYHPR, the pKd [19] was at most 4.70, the pKd [20, 44] was at most 4.70 and the pKd [21, 44] was 7.42. The pKd [22] was at most 4.70, the pKd [23, 44] was at most 4.70 and the pKd [24] was at most 4.70. For the same sequence, the pKd [25, 44] was 8.33, the pKd [26] was at most 4.70 and the pKd [27, 44] was at most 4.70. For the same sequence, the pKd [28, 44] was at most 4.70, the pKd [29] was at most 4.70 and the pKd [30] was at most 4.70. It also gave a pKd [31, 44] of at most 4.70, a pKd [32] of at most 4.70 and a pKd [33] of 5.72. For the same sequence, the pKd [4, 45] was 5.78, the pKd [34, 45] was 5.68 and the pKd [35, 45] was at most 4.70.

DIIGGPCAH showed a pKd [36] of 5.70.

With IEDDEIIWV the pKd [1, 46] was at most 4.70, the pKd [37] was at most 4.70 and the pKd [2, 46] was at most 4.70. The pKd [3, 46] was at most 4.70, the pKd [4, 46] was at most 4.70 and the pKd [5, 46] was at most 4.70. For the same sequence, the pKd [6, 46] was 9.70, the pKd [7, 46] was at most 4.70 and the pKd [8, 46] was at most 4.70. It also gave a pKd [9, 46] of at most 4.70, a pKd [10, 46] of at most 4.70 and a pKd [11, 46] of at most 4.70. For the same sequence, the pKd [12, 46] was at most 4.70, the pKd [13, 46] was at most 4.70 and the pKd [14, 46] was at most 4.70. For the same sequence, the pKd [15, 46] was at most 4.70, the pKd [16, 46] was at most 4.70 and the pKd [17, 46] was at most 4.70. The pKd [18, 46] was at most 4.70.

Work on ILKEYPQVY yielded a pKd ([38]; source organism: Encephalitozoon cuniculi GB-M1) of 6.81.

KLYPNVDFY showed a pKd [39] of at most 4.70, a pKd [20, 47] of at most 4.70 and a pKd [21, 47] of 6.65. The pKd [23, 47] was at most 4.70, the pKd [25, 47] was 5.44 and the pKd [27, 47] was at most 4.70. It also gave a pKd [28, 47] of at most 4.70, a pKd [31, 47] of at most 4.70 and a pKd [4, 48] of at most 4.70. It also gave a pKd [34, 48] of 5.80, a pKd [40] of at most 4.70 and a pKd [7, 48] of at most 4.70. The pKd [41] was 5.46, the pKd [35, 48] was at most 4.70 and the pKd [14, 48] was 6.97. It also gave a pKd [15, 48] of 6.68 and a pKd [17, 48] of at most 4.70.

With MIYNSFNPY the pKd [42] was at most 4.70 and the pKd ([38]; source organism: Francisella tularensis subsp. tularensis FSC198) was at most 4.70.
